Test: Water intake (METABOpack sessions);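 for cumulative water intake: water intake recorded in mL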
Format: in vivo, CD-1 mice
Description: During the METABOpack™ sessions, animals were housed singly in the Physiocage System (Panlab/Harvard apparatus), which was composed of: • 8 physiocages (LE1301) • 8 Air tight lids for mouse (LE1303) • 8 grid floors for mouse (LE1317) • 8 Feeding bottles for mouse (LE1306) • 2 Air supply and switching units for up to 4 home cages each (LE4004FL) • 1 O2/CO2 analyzer (LE405) • 1 acquisition software suite, METABOLISM (V3.0).
In the present project, a METABOpack™ session was consisted of a 12-hour period of acclimation followed by a 48-hour period of recording of the respiratory exchanges, FI, water intake (WI) and locomotor activity of each animal.
Following this acclimation period, the parameters cited above were automatically and simultaneously recorded for 48 hours, except for body weight that was measured manually every day.
The METABOpack™ sessions were conducted at the start (T1-2), the middle (T14-15) and the end (T26-27) of the treatment period.

B1: Mutant FGF21-GalNAc-SA-PEG-20 kDa (conjugate)
chain: MHPIPDSSPLLQFGGQVRQRYLYTDDAQQTEAHLEIREDGTVGGAADQSPESLLQLKALKPGVIQILGVKTSRFLCQRPDGALYGSLHFDPEACSFRELLLEDGYNVYQSEAHGLPLHLPGNKSPHRDPAPRGPARFLPLPGLPPALPEPPGILAPQPPDVGSSDPLSMVGPTQGASPSYAS
mean water intake (T1, DP, 3 mg/kg, vs 0.3 and 1 mg/kg): decreased | mean water intake (T1, DP, 0.3 and 1 mg/kg, vs Liraglutide): increased | mean water intake (T1, NP and WD, whatever the dose, vs Liraglutide): increase in mean water intake | mean water intake (T1, three doses, vs vehicle): no significant difference | cumulative water intake (T2, 0.3 mg/kg, vs Liraglutide, 5-24 h): increased | cumulative water intake (T2, 0.3 mg/kg, vs vehicle, at 5, 6, 7, 9, 10 h and 12-24 h): increased | cumulative water intake (T2, 1 mg/kg, vs Liraglutide, 4-24 h): increased | cumulative water intake (T2, 1 mg/kg, vs vehicle, 4-24 h): increased | cumulative water intake (T2, 3 mg/kg, vs Liraglutide, 2-24 h): increased | cumulative water intake (T2, 3 mg/kg, vs vehicle, 2-24 h): increased | mean water intake (T2, NP, 0.3 and 1 mg/kg, vs vehicle): increased | mean water intake (T2, WD, whatever the dose, vs vehicle): increased | cumulative water intake (T2, between the three 89BIO-100 groups): no significant difference | mean water intake (T2, whatever the phase, whatever the dose, vs Liraglutide): increase in mean water intake | cumulative water intake (T14, 1 mg/kg, vs 0.3 mg/kg, at 2 h and 7-24 h): increased | cumulative water intake (T14, 3 mg/kg, vs 0.3 mg/kg, 3-24 h): increased | cumulative water intake (T14, 1 and 3 mg/kg, vs Liraglutide, 2-24 h): increased | cumulative water intake (T14, 1 and 3 mg/kg, vs vehicle, 2-24 h): increased | mean water intake (T14, NP, 1 and 3 mg/kg, vs 0.3 mg/kg): increased | mean water intake (T14, WD, 3 mg/kg, vs 0.3 mg/kg): increased | mean water intake (T14, whatever the phase, 1 and 3 mg/kg, vs Liraglutide): increase in mean water intake | mean water intake (T14, whatever the phase, 1 and 3 mg/kg, vs vehicle): increased | cumulative water intake (T15, 1 mg/kg, vs 0.3 mg/kg, 2-24 h): increased | cumulative water intake (T15, 3 mg/kg, vs 0.3 mg/kg, 1-15 h): increased | cumulative water intake (T15, 1 and 3 mg/kg, vs Liraglutide, over 24 h): increased | cumulative water intake (T15, 1 and 3 mg/kg, vs vehicle, over 24 h): increased | cumulative water intake (T26, 1 mg/kg, vs Liraglutide, at 3 h, 4 h and 6-21 h): increased | cumulative water intake (T26, 1 mg/kg, vs vehicle, only at 3 h and 4 h): increased | cumulative water intake (T26, 3 mg/kg, vs 0.3 mg/kg, 5-16 h): increased | cumulative water intake (T26, 3 mg/kg, vs Liraglutide, 3-24 h): increased | cumulative water intake (T26, 3 mg/kg, vs vehicle, 3-24 h): increased | mean water intake (T26, NP and WD, 3 mg/kg, vs vehicle): increased | mean water intake (T26, NP, 3 mg/kg, vs 0.3 mg/kg): increased | mean water intake (T26, NP, 1 and 3 mg/kg, vs Liraglutide): increase in mean water intake | mean water intake (T26, WD, 3 mg/kg, vs Liraglutide): increase in mean water intake | cumulative water intake (T27, 1 mg/kg, vs vehicle, 2-5 h): increased | cumulative water intake (T27, 3 mg/kg, vs 0.3 mg/kg, at 1 h and 3-8 h): increased | cumulative water intake (T27, 3 mg/kg, vs 1 mg/kg, at 3 h, 4 h, 5 h and 7 h): increased | cumulative water intake (T27, 3 mg/kg, vs Liraglutide, over 24 h): increased | cumulative water intake (T27, 3 mg/kg, vs vehicle, over 24 h): increased | mean water intake (T27, NP and WD, 3 mg/kg, vs vehicle and Liraglutide groups): increased | mean water intake (section On T15 (text prints T14), NP and WD, 1 and 3 mg/kg, vs vehicle): increased | mean water intake (section On T15, NP and WD, 1 and 3 mg/kg, vs Liraglutide): increase in mean water intake | mean water intake (section On T15, NP, 1 and 3 mg/kg, vs 0.3 mg/kg): increased | mean water intake (section On T15, WD, 1 mg/kg, vs 0.3 mg/kg): increased
